Data taken from patent US20210398607A1, “METHODS FOR DESIGNING ANTIBODY SMALL-MOLECULE CONJUGATES” (priority 2020, published 2021).
Positions count from the first letter of the chain named. In names and notes the source's numbering stands. Where two headings read alike, the source gives them in different places.

T1: mSAS27A (mSA with single mutation S27A)
T1 chain: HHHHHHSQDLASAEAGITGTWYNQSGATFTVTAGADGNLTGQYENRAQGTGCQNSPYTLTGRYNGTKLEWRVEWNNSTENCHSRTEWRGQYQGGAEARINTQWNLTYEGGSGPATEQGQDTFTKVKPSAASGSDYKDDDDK

B1: 4NBX.B-biotin103 v186 (VHH)
VHH: QVQLQESGGGLAQAGGSLRLSCAASGRTFSRSPMAWFRQPPGKEREFVAAGSSTGTTTYYADSVKGRFTISRDNAKNTVYLQMNSLKPEDTAVYYCAAAPLGCARKFAESAYWGQGTQVTVSS
B2: 4NBX.B-biotin103 v186_Fr -1 (VHH)
VHH: B1 VHH with A12V, F37Y, G102C, C103A
notes: also called -1 variant of 4NBX.B-biotin103 v186_Fr
B3: 4NBX.B-biotin103 v186_Fr +1 (VHH)
VHH: B1 VHH with A12V, F37Y, C103A, A104C
notes: also called +1 variant of 4NBX.B-biotin103 v186_Fr
B4: 4NBX.B-biotin103 v186_Fr (VHH)
VHH: B1 VHH with A12V, F37Y
notes: also called wildtype v186_Fr
B5: 2X89.A-CCAA-biotin57 v5: final variant of 2X89.A-CCAA-biotin57 that accumulated 18 mutations, SEQ ID NO:14 (conjugate)
VHH: QVQLQESGGGLVQAGGSLRLSCAASGYTSSQYAMGWYRQAPGKEREWVATISAGADCTYYADSVKGRFTFSQDNAKNTVYLQMDSLKPEDTAVYYCATDSPLQATLITAKGGKGFQYWGQGTQVTVSSHHHHHH
B6: 2X89.A-CCAA-biotin57 (VHH)
VHH: QVQLQESGGGSVQAGGSLRLSCAASGYTDSRYAMAWFRQAPGKEREWVARINSGRDCTYYADSVKGRFTFSQDNAKNTVYLQMDSLEPEDTATYYCATDIPLRARDIVAKGGDGFRYWGQGTQVTVSS
notes: also called parent conjugate
B7: 4NBX.B-biotin103 v119: 4NBX.B-biotin103 with M31H/D32A/N104S/W105H, SEQ ID NO:3 (conjugate)
VHH: QVQLQESGGGLAQAGGSLRLSCAASGRTFSHAPMAWFRQPPGKEREFVAAGSSTGRTTYYADSVKGRFTISRDNAKNTVYLQMNSLKPEDTAVYYCAAAPYGCSHYRDEYAYWGQGTQVTVSSHHHHHH
B8: 4NBX.B-biotin103 v186: v149 plus Y101L/R107F/R56T/Y106K/D108A/Y110S, SEQ ID NO:5; the WT line of Table 2 (conjugate)
VHH: B7 VHH with H31R, A32S, R56T, Y101L, S104A, H105R, Y106K, R107F, D108A, Y110S
B9: 2X89.A-CCAA-biotin57 v42 (VHH)
VHH: QVQLQESGGGLVQAGGSLRLSCAASGYTDSQYAMGWYRQAPGKEREWVATISAGRDCTYYADSVKGRFTFSQDNAKNTVYLQMDSLKPEDTAVYYCATDIPLQATLITAKGGKGFQYWGQGTQVTVSS
B10: 2X89.A-CCAA-biotin57 v5 (VHH)
VHH: B9 VHH with D29S, R55A, I100S
notes: also called variant v5; final variant v5
B11: 2X89.A-CCAA-biotin57 v20 (VHH)
VHH: B9 VHH with D29S, I100S
B12: mSA (monomeric streptavidin construct), wild type (other)
chain: T1 chain with A27S
notes: also called mSAWT

Key:
mSA = details: read-out: biotin/mSA affinity, fluorescence polarization spectroscopy, cited from earlier work
[1] = molecular target: B12; assay: SPR, conjugate injected at 0.5, 1, 2.5, 5, 10 nM over immobilized mSAWT; fit curve
[2] = molecular target: B12; assay: SPR, single-cycle injections of 1, 2.5, 5, 10 and 20 nM conjugate over immobilized mSAWT; fit curve
[3] = molecular target: B12; assay: SPR
[4] = molecular target: B12; assay: SPR, single-cycle injections of 1, 2.5, 5, 10 and 20 nM conjugate over immobilized mSAWT; fit curve
[5] = molecular target: T1, mSAS27A (mSA with single mutation S27A); assay: SPR
[6] = molecular target: B12; assay: SPR, conjugate injected at 0.5, 1, 2.5, 5, 10 nM over immobilized mSAWT; fit curve; replicate 2
[7] = molecular target: B12; assay: SPR, conjugate injected at 0.5, 1, 2.5, 5, 10 nM over immobilized mSAWT; fit curve; replicate 3
[8] = molecular target: B12; assay: SPR, conjugate injected at 0.5, 1, 2.5, 5, 10 nM over immobilized mSAWT; fit curve; one of three replicates
[9] = molecular target: T1, mSAS27A (mSA with single mutation S27A); assay: SPR, conjugate injected at 12.5, 25, 50, 100, 200 nM over immobilized mSAS27A; fit curve; one of three replicates
[10] = molecular target: T1, mSAS27A (mSA with single mutation S27A); assay: SPR, conjugate injected at 12.5, 25, 50, 100 and 200 nM over immobilized mSAS27A; biological replicate 2; fit curve
[11] = molecular target: T1, mSAS27A (mSA with single mutation S27A); assay: SPR, conjugate injected at 12.5, 25, 50, 100 and 200 nM over immobilized mSAS27A; biological replicate 3; fit curve
[12] = molecular target: mSA (monomeric streptavidin, mSAWT) (Streptomyces avidinii; Rhizobium etli, UniProt P22629+Q8KKW2); assay: SPR binding against mSAWT; details: for koff / dissociation rate, in words: mSAWT
From the text: Smt3 SUMO protein has an unstructured N-terminus and it was hypothesized this would minimize the interaction between the protein components.

[13] = SEC traces
Experimental: Two additional rounds of CDR residue mutability analysis were performed followed by in-parallel combinatorial designs on v149 until no further CDR mutations were predicted to be energetically favorable. Mutations accumulated in previous rounds of design were kept intact in subsequent rounds.

[14] = molecular target: B12; assay: SPR, conjugate injected at 1, 2.5, 5, 10, 20 nM over immobilized mSAWT; fit curve; one of three replicates
[15] = molecular target: B12; assay: SPR, conjugate injected at 1, 2.5, 5, 10, 20 nM; fit curve; replicate 2. The panel title prints 'against immobilized mSAS27A'; target taken as mSAWT after the legend of FIG. 6B and the matching data points of FIG. 6C
[16] = molecular target: B12; assay: SPR, conjugate injected at 1, 2.5, 5, 10, 20 nM; fit curve; replicate 3. The panel title prints 'against immobilized mSAS27A'; target taken as mSAWT after the legend of FIG. 6B and the matching data points of FIG. 6C
[17] = molecular target: B12; assay: SPR, conjugate injected at 1, 2.5, 5, 10, 20 nM; fit curve; replicate 2. The panel title prints 'against immobilized mSAS27A'; target taken as mSAWT after the legend of FIG. 6B (other two replicates against mSAWT are in FIG. 11) and the matching data points of FIG. 6C
[18] = molecular target: B12; assay: SPR, single-cycle injections of 2.5, 5, 10, 20 and 50 nM conjugate; target mSAWT by the text, not printed on the sheet; fit curve
[19] = molecular target: B12; assay: as above
[20] = molecular target: B12; assay: as above
[21] = molecular target: T2, N-terminal biotinylated Smt3 SUMO protein (UniProt Q12306 2-98 = SUMO); assay: SPR, Biotin_SUMO injected at 2.5, 10, 20, 50, 80 nM over immobilized mSAWT; fit curve; replicate 2
[22] = molecular target: T2, N-terminal biotinylated Smt3 SUMO …; assay: SPR, Biotin_SUMO injected at 2.5, 10, 20, 50, 80 nM over immobilized mSAWT; fit curve; replicate 3
[23] = molecular target: T2, N-terminal biotinylated Smt3 SUMO …; assay: SPR, Biotin_SUMO injected at 2.5, 10, 20, 50, 80 nM over immobilized mSAWT; fit curve; one of three replicates

T2 sequence (Q12306 2-98 limits assumed): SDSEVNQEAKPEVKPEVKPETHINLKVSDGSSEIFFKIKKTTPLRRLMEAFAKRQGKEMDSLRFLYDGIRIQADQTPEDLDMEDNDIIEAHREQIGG
Chain of mSA (monomeric streptavidin, mSAWT) (P22629 37-163): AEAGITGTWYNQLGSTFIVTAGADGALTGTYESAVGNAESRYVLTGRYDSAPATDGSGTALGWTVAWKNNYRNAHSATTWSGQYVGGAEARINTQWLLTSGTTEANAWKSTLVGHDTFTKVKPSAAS
Chain of mSA (monomeric streptavidin, mSAWT) (Q8KKW2 31-146): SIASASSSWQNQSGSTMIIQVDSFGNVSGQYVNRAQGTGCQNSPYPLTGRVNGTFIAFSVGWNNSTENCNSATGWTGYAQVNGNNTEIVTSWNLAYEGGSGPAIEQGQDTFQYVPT

## O=C(O)CCCC[C@@H]1SC[C@@H]2NC(=O)N[C@@H]21 [biotin]
mSA; 4° C.
  Kd: 2.8 ± 0.5 nM
mSA; 37° C.
  Kd: 5.5 ± 0.2 nM

## B1
[1]
  Kd: 0.33 nM
  koff: 0.00106 s⁻¹
  kon: 3.23e+06 M⁻¹ s⁻¹

## B2
[2]
  Kd: 0.32 nM
  koff: 0.000986 s⁻¹
  kon: 3.13e+06 M⁻¹ s⁻¹

## B3
[3]
  fold weaker binding than the -1 variant: ~2 fold
[4]
  Kd: 0.64 nM
  koff: 0.00138 s⁻¹
  kon: 2.14e+06 M⁻¹ s⁻¹

## B4
[3]
  Kd: 0.2 nM
  fold KD improvement over biotin/mSAWT: > 20 fold
[5]
  Kd: 54 nM
  fold KD improvement (over biotin/mSAS27A): ~20 fold
[6]
  Kd: 0.16 nM
  koff: 0.00079 s⁻¹
  kon: 5.04e+06 M⁻¹ s⁻¹
[7]
  Kd: 0.21 nM
  koff: 0.00089 s⁻¹
  kon: 4.26e+06 M⁻¹ s⁻¹
[8]
  Kd: 0.23 nM
  koff: 0.0011 s⁻¹
  kon: 4.79e+06 M⁻¹ s⁻¹
[9]
  Kd: 49.6 nM
  koff: 0.0912 s⁻¹
  kon: 1.84e+06 M⁻¹ s⁻¹
[10]
  Kd: 56.3 nM
  koff: 0.0879 s⁻¹
  kon: 1.56e+06 M⁻¹ s⁻¹
[11]
  Kd: 55.5 nM
  koff: 0.0872 s⁻¹
  kon: 1.57e+06 M⁻¹ s⁻¹

## B5
[12]
  koff / dissociation rate, in words: relatively preserved
[13]
  aggregation / monomer stability on SEC: eventually better than the 2X89.A-CCAA-biotin57 parent conjugate

## B6
[3]
  Kd: 0.8 nM
[14]
  Kd: 0.82 nM
  koff: 0.000771 s⁻¹
  kon: 940000 M⁻¹ s⁻¹
[15]
  Kd: 1.01 nM
  koff: 0.000718 s⁻¹
[16]
  Kd: 0.54 nM
  koff: 0.000555 s⁻¹
  kon: 1.03e+06 M⁻¹ s⁻¹
[17]
  kon: 710000 M⁻¹ s⁻¹

## B7
[12]
  koff / dissociation rate, in words: only minimally different
[13]
  aggregation / monomer stability on SEC: single peaks

## B8
[12]
  KD / measured affinity against mSAWT, comparison in words: very similar KD as v149
[13]
  aggregation / monomer stability on SEC: even worse aggregates formation than v149

## B9
[18]
  Kd: 3.32 nM
  koff: 0.00178 s⁻¹
  kon: 540000 M⁻¹ s⁻¹

## B10
[19]
  Kd: 2.78 nM
  koff: 0.00122 s⁻¹
  kon: 440000 M⁻¹ s⁻¹

## B11
[20]
  Kd: 3.28 nM
  koff: 0.00183 s⁻¹
  kon: 560000 M⁻¹ s⁻¹

## B12
[21]
  Kd: 10.5 nM
  koff: 0.00372 s⁻¹
  kon: 360000 M⁻¹ s⁻¹
[22]
  Kd: 10.4 nM
  koff: 0.00366 s⁻¹
  kon: 350000 M⁻¹ s⁻¹
[23]
  Kd: 7.85 nM
  koff: 0.00334 s⁻¹
  kon: 430000 M⁻¹ s⁻¹
